Assay results taken from patent US20200317806A1 (Hoffmann-La Roche, published 2020).

Target: T1, murine EpCAM recombinant ectodomain (ECD), C-terminally His-Avi tagged (mouse)
T1 construct: also called mu EpCAM; EpCAM ECD
T1 chain: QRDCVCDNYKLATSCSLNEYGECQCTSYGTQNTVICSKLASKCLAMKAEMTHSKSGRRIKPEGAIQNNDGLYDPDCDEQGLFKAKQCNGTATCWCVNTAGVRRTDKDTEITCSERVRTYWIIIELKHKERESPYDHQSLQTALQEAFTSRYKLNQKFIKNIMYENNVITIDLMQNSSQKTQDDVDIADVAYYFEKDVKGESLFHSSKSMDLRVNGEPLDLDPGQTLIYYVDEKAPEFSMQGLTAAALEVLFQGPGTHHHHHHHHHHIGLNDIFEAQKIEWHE
Test: SPR (Biacore), antibody captured by anti-mouse IgG, EpCAM ECD as analyte, 37 C
Source text: This system is well established for the study of molecule interactions. It allows a continuous real-time monitoring of ligand/analyte bindings and thus the determination of association rate constants (ka), dissociation rate constants (kd), and equilibrium constants (KD) in various assay settings. SPR-technology is based on the measurement of the refractive index close to the surface of a gold coated biosensor chip. Changes in the refractive index indicate mass changes on the surface caused by the interaction of immobilized ligand with analyte injected in solution. If molecules bind to immobilized ligand on the surface the mass increases, in case of dissociation the mass decreases. For capturing, a goat anti-mouse IgG antibody was immobilized on the surface of a CM5 biosensorchip using amine-coupling chemistry according to the manufacturer's instructions. Flow cells were activated with a 1:1 mixture of 0.1 M N-hydroxysuccinimide and 0.4 M 1-ethyl-3-(3-dimethylaminopropyl)-carbodiimide hydrochloride at a flow rate of 5 μl/min at 25° C. Anti-mouse IgG antibody was injected in 10 mM sodium acetate, pH 4.5 at 10 μg/mL. A reference control flow cell was treated in the same way but with vehicle buffers only instead of the capturing antibody. Surfaces were blocked with an injection of 1 M ethanolamine/HCl pH 8.5. […] All interactions were performed at 37° C., using PBS-T as running buffer. The analytes were injected in a series of threefold increasing concentrations (EGFR ECD 4.12-1000 nM and EpCAM ECD 0.91-2000 nM in PBS-T+0.1% BSA) with a flow rate of 50 μl/min, 180 sec association, 1200 sec dissociation. The capture antibody was regenerated after each cycle with 10 mM glycine, pH 2.0 at a flow rate of 30 μl/min for 60 sec. Signals were detected at a rate of one signal per second.

B1: G8.8 (mouse EpCAM-specific antibody) (antibody, mouse IgG2a, kappa, V domains shown)
VH: EVQLAESGGGLVQPGRSMKLSCAASGFTFSNFPMAWVRQAPTKGLEWVATISTSGGSTYYRDSVKGRFTISRDNAKSTLYLQMNSLRSEDTATYYCTRTLYILRVFYFDYWGQGVMVTVSS
VL: DIQMTQSPASLSASLGETVSIECLASEGISNDLAWYQQKSGKSPQLLIYATSRLQDGVPSRFSGSGSGTRYSLKISGMQPEDEADYFCQQSYKYPWTFGGGTKLELKR
notes: Full heavy and light chains; also called EpCAM G8.8; anti-EpCAM mono-specific antibody
  Kd: 61 nM
  koff: 0.013 s⁻¹
  kon: 220000 M⁻¹ s⁻¹
